Test results: paper PMC12717047 (Nature Communications, 2025)

What was measured:
Experiment in all cases: flow cytometry on cells
[1] = molecular target: T1, KRAS^WT p7 peptide presented on HLA-A*03 (p7^WT/A*03) (Homo sapiens, HLA-A*03:01, strain, biotin on the AviTag (BirA co-expressed))
T1 chain 1: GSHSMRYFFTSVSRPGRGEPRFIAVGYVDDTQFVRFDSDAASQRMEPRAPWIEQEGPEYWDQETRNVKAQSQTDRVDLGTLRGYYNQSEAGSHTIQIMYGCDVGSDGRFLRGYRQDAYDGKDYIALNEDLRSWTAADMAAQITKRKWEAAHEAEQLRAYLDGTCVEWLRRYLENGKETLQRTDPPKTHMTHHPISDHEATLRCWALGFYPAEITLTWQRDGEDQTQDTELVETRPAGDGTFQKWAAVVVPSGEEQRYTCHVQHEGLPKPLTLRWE
T1 chain 2: not shown
T1 chain 3: VVVGAGGVGK

[2] = molecular target: KRAS^WT p7 peptide presented on HLA-A*11 (p7^WT/A*11) (Homo sapiens, HLA-A*11:01, strain, biotin on the AviTag (BirA co-expressed))
[3] = molecular target: T2, KRAS^WT p5 peptide presented on HLA-A*02 (p5^WT/A*02) (Homo sapiens, HLA-A*02:01, strain, biotin on the AviTag (BirA co-expressed))
T2 chain 1: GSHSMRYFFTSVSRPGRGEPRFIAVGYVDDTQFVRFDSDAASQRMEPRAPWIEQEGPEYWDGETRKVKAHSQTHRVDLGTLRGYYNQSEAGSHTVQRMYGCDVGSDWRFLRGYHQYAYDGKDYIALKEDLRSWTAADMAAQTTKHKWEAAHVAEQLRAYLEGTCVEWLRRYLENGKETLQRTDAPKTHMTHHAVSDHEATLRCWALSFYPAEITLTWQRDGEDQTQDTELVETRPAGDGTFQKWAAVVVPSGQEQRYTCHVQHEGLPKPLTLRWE
T2 chain 2: not shown
T2 chain 3: KLVVVGAGGV

Measured: binding result

B1: yeast-displayed scFv R302 (scFv, V domains shown)
VH: EVQLLESGGGVVQPGRSLRLSCAASGFTFSSYGMHWVRQAPGKGLEWVAVISYDGSNKYYADSVKGRFTISRDNSKNTLYLQMNSLRAEDTAVYYCLYGGNSYGMDVWGQGTMVTVFN
VL: DIVMTQSPATLSLSPGERATLSCRASQSLSSSFLAWYQQKPGQAPRLLIYGASSRATGIPDRFSGSGSGTDFTLTISRLEPEDFAVYYCQQSESALTFGGGTKVEIK
no binding: all assays above
